# Experimental data as given in PMC8294587, “Intrinsic differences in the mechanisms of Tie2 binding to angiopoietins exploited by directed evolution to create an Ang2-selective ligand trap” (The Journal of Biological Chemistry, 2021).
# B1: wild-type Tie2 ectodomain-Fc [human] / Angiopoietin-2 [not stated] (parent complex)
# chain 1: AMDLILINSLPLVSDAETSLTCIASGWRPHEPITIGRDFEALMNQHQDPLEVTQDVTREWAKKVVWKREKASKINGAYFCEGRVRGEAIRIRTMKMRQQASFLPATLTMTVDKGDNVNISFKKVLIKEEDAVIYKNGSFIHSVPRHEVPDILEVHLPHAQPQDAGVYSARYIGGNLFTSAFTRLIVRRCEAQKWGPECNHLCTACMNNGVCHEDTGECICPPGFMGRTCEKACELHTFGRTCKERCSGQEGCKSYVFCLPDPYGCSCATGWKGLQCNEACHPGFYGPDCKLRCSCNNGEMCDRFQGCLCSPGWQGLQCEREGIQRMTPKIVDLPDHIEVNSGKFNPICKASGWPLPTNEEMTLVKPDGTVLHPKDFNHTDHFSVAIFTIHRILPPDSGVWVCSVNTVAGMVEKPFNISVK
# chain 2: YNNFRKSMDSIGKKQYQVQHGSCSYTFLLPEMDNCRSSSSPYVSNAVQRDAPLEYDDSVQRLQVLENIMENNTQWLMKLENYIQDNMKKEMVEIQQNAVQNQTAVMIEIGTNLLNQTAEQTRKLTDVEAQVLNQTTRLELQLLEHSLSTNKLEKQILDQTSEINKLQDKNSFLEKKVLAMEDKHIIQLQSIKEEKDQLQVLVSKQNSIIEELEKKIVTATVNNSVLQKQQHDLMETVNNLLTMMSTSNSAKDPTVAKEEQISFRDCAEVFKSGHTTNGIYTLTFPNSTEEIKAYCDMEAGGGGWTIIQRREDGSVDFQRTWKEYKVGFGNPSGEYWLGNEFVSQLTNQQRYVLKIHLKDWEGNEAYSLYEHFYLSSEELNYRIHLKGLTGTAGKISSISQPGNDFSTKDGDNDKCICKCSQMLTGGWWFDACGPSNLNGMYYPQRQNTNKFNGIKWYYWKGSGYSLKATTMMIRPADF
# B2: wild-type Tie2 ectodomain-Fc [human] / Angiopoietin-1 [not stated] (parent complex)
# chain 1: B1 chain 1
# chain 2: HIGCSNQRRSPENSGRRYNRIQHGQCAYTFILPEHDGNCRESTTDQYNTNALQRDAPHVEPDFSSQKLQHLEHVMENYTQWLQKLENYIVENMKSEMAQIQQNAVQNHTATMLEIGTSLLSQTAEQTRKLTDVETQVLNQTSRLEIQLLENSLSTYKLEKQLLQQTNEILKIHEKNSLLEHKILEMEGKHKEELDTLKEEKENLQGLVTRQTYIIQELEKQLNRATTNNSVLQKQQLELMDTVHNLVNLCTKEGVLLKGGKREEEKPFRDCADVYQAGFNKSGIYTIYINNMPEPKKVFCNMDVNGGGWTVIQHREDGSLDFQRGWKEYKMGFGNPSGEYWLGNEFIFAITSQRQYMLRIELMDWEGNRAYSQYDRFHIGNEKQNYRLYLKGHTGTAGKQSSLILHGADFSTKDADNDNCMCKCALMLTGGWWFDACGPSNLNGMFYTAGQNHGKLNGIKWHYFKGPSYSLRSTTMMIRPLDF
# Variants of: B1
# Test: ELISA (named by the earlier reader; legend does not name the assay); mutant read at its highest concentration point, about 300 nM Tie2 ectodomain; parent value is the wild-type curve's highest concentration point, about 50 nM; parent: 0.9; read off a plot
row,response [AU],Variant
1,~0.58,"chain 1 AMDLILINSLPLVSDAETSLTCIASGWRPHEPITIGRDFEALMNQHQDPLEVTQDVTREWAKKVVWKREKASKINGAYFCEGRVRGEAIRIRTMKMRQQASFLPATLTMTVDKGDNVNISFKKVLIKEEDAVIYKNGSFIHSVPAAAVPDILEVHLPHAQPQDAGVYSARYIGGNLFTSAFTRLIVRRCEAQKWGPECNHLCTACMNNGVCHEDTGECICPPGFMGRTCEKACELHTFGRTCKERCSGQEGCKSYVFCLPDPYGCSCATGWKGLQCNEACHPGFYGPDCKLRCSCNNGEMCDRFQGCLCSPGWQGLQCEREGIQRMTPKIVDLPDHIEVNSGKFNPICKASGWPLPTNEEMTLVKPDGTVLHPKDFNHTDHFSVAIFTIHRILPPDSGVWVCSVNTVAGMVEKPFNISVK [chain 1 R145A, chain 1 H146A, chain 1 E147A]"

# Variants of: B1
# Test: ELISA (named by the earlier reader; legend does not name the assay); mutant read at its highest concentration point, about 300 nM Tie2 ectodomain; parent value is the wild-type curve's highest concentration point, about 50 nM; parent: 1; read off a plot
row,response [AU],Variant
1,~1,"chain 1 AMDLILINSLPLVSDAETSLTCIASGWRPHEPITIGRDFEALMNQHQDPLEVTQDVTREWAKKVVWKREKASKINGAYFCEGRVRGEAIRIRTMKMRQQASFLPATLTMTVDKGDNVNISFKKVLIKEEDAVIYKNGSFIHSVPAAEVPDILEVHLPHAQPQDAGVYSARYIGGNLFTSAFTRLIVRRCEAQKWGPECNHLCTACMNNGVCHEDTGECICPPGFMGRTCEKACELHTFGRTCKERCSGQEGCKSYVFCLPDPYGCSCATGWKGLQCNEACHPGFYGPDCKLRCSCNNGEMCDRFQGCLCSPGWQGLQCEREGIQRMTPKIVDLPDHIEVNSGKFNPICKASGWPLPTNEEMTLVKPDGTVLHPKDFNHTDHFSVAIFTIHRILPPDSGVWVCSVNTVAGMVEKPFNISVK [chain 1 R145A, chain 1 H146A]"

# Variants of: B2
# Test: ELISA (named by the earlier reader; legend does not name the assay); mutant read at its highest concentration point, about 300 nM Tie2 ectodomain; parent value is the wild-type curve's highest concentration point, about 50-100 nM; parent: …; read off a plot
row,response [AU],Variant
1,~0.09,"chain 1 AMDLILINSLPLVSDAETSLTCIASGWRPHEPITIGRDFEALMNQHQDPLEVTQDVTREWAKKVVWKREKASKINGAYFCEGRVRGEAIRIRTMKMRQQASFLPATLTMTVDKGDNVNISFKKVLIKEEDAVIYKNGSFIHSVPAAAVPDILEVHLPHAQPQDAGVYSARYIGGNLFTSAFTRLIVRRCEAQKWGPECNHLCTACMNNGVCHEDTGECICPPGFMGRTCEKACELHTFGRTCKERCSGQEGCKSYVFCLPDPYGCSCATGWKGLQCNEACHPGFYGPDCKLRCSCNNGEMCDRFQGCLCSPGWQGLQCEREGIQRMTPKIVDLPDHIEVNSGKFNPICKASGWPLPTNEEMTLVKPDGTVLHPKDFNHTDHFSVAIFTIHRILPPDSGVWVCSVNTVAGMVEKPFNISVK [chain 1 R145A, chain 1 H146A, chain 1 E147A]"

# Variants of: B2
# Test: ELISA (named by the earlier reader; legend does not name the assay); mutant read at its highest concentration point, about 300 nM Tie2 ectodomain; parent value is the wild-type curve's highest concentration point, about 30-50 nM; parent: 1; read off a plot
row,response [AU],Variant
1,~0.88,"chain 1 AMDLILINSLPLVSDAETSLTCIASGWRPHEPITIGRDFEALMNQHQDPLEVTQDVTREWAKKVVWKREKASKINGAYFCEGRVRGEAIRIRTMKMRQQASFLPATLTMTVDKGDNVNISFKKVLIKEEDAVIYKNGSFIHSVPAAEVPDILEVHLPHAQPQDAGVYSARYIGGNLFTSAFTRLIVRRCEAQKWGPECNHLCTACMNNGVCHEDTGECICPPGFMGRTCEKACELHTFGRTCKERCSGQEGCKSYVFCLPDPYGCSCATGWKGLQCNEACHPGFYGPDCKLRCSCNNGEMCDRFQGCLCSPGWQGLQCEREGIQRMTPKIVDLPDHIEVNSGKFNPICKASGWPLPTNEEMTLVKPDGTVLHPKDFNHTDHFSVAIFTIHRILPPDSGVWVCSVNTVAGMVEKPFNISVK [chain 1 R145A, chain 1 H146A]"
